Reference: patent publication US20240132615A1 (ICHNOS SCIENCES, published 2024)

B1: teclistamab (bispecific antibody)
chain 1: not shown
chain 2: SYVLTQPPSVSVAPGQTARITCGGNNIGSKSVHWYQQPPGQAPVVVVYDDSDRPSGIPERFSGSNSGNTATLTISRVEAGDEAVYYCQVWDSSSDHVVFGGGTKLTVLGQPKAAPSVTLFPPSSEELQANKATLVCLISDFYPGAVTVAWKGDSSPVKAGVETTTPSKQSNNKYAASSYLSLTPEQWKSHRSYSCQVTHEGSTVEKTVAPTECS
chain 3: EVQLVESGGGLVQPGGSLRLSCAASGFTFNTYAMNWVRQAPGKGLEWVARIRSKYNNYATYYAASVKGRFTISRDDSKNSLYLQMNSLKTEDTAVYYCARHGNFGNSYVSWFAYWGQGTLVTVSSASTKGPSVFPLAPCSRSTSESTAALGCLVKDYFPEPVTVSWNSGALTSGVHTFPAVLQSSGLYSLSSVVTVPSSSLGTKTYTCNVDHKPSNTKVDKRVESKYGPPCPPCPAPEAAGGPSVFLFPPKPKDTLMISRTPEVTCVVVDVSQEDPEVQFNWYVDGVEVHNAKTKPREEQFNSTYRVVSVLTVLHQDWLNGKEYKCKVSNKGLPSSIEKTISKAKGQPREPQVYTLPPSQEEMTKNQVSLTCLVKGFYPSDIAVEWESNGQPENNYKTTPPVLDSDGSFLLYSKLTVDKSRWQEGNVFSCSVMHEALHNHYTQKSLSLSLGK
chain 4: QTVVTQEPSLTVSPGGTVTLTCRSSTGAVTTSNYANWVQQKPGQAPRGLIGGTNKRAPGTPARFSGSLLGGKAALTLSGVQPEDEAEYYCALWYSNLWVFGGGTKLTVLGQPKAAPSVTLFPPSSEELQANKATLVCLISDFYPGAVTVAWKADSSPVKAGVETTTPSKQSNNKYAASSYLSLTPEQWKSHRSYSCQVTHEGSTVEKTVAPTECS
B2: Anti-CD38-UCP03-B3 FAB (Fab, V domains shown)
VH: QVQLVQSGAEVKKPGSSVKVSCKASGGDFTLYSISWVRQAPGQGLEWMGRIIPTGANANYAQKFQGRVTITADESTSTAYMELSSLRSEDTAVYYCARSWPSLGSGWFDIWGQGTLVTVSS
VL: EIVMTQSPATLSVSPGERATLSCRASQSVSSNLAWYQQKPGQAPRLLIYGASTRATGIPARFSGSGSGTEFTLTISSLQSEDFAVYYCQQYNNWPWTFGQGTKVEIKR
notes: Fab; also called anti-CD38-B3; anti-CD38-B3 Fab
B3: 83A10-TCBcv (bispecific antibody, human IgG1, kappa, L234A L235A)
chain 1: not shown
chain 2: not shown
chain 3: not shown
chain 4: EVQLLESGGGLVQPGGSLRLSCAASGFTFSTYAMNWVRQAPGKGLEWVSRIRSKYNNYATYYADSVKGRFTISRDDSKNTLYLQMNSLRAEDTAVYYCVRHGNFGNSYVSWFAYWGQGTLVTVSSASVAAPSVFIFPPSDEQLKSGTASVVCLLNNFYPREAKVQWKVDNALQSGNSQESVTEQDSKDSTYSLSSTLTLSKADYEKHKVYACEVTHQGLSSPVTKSFNRGEC
notes: Comparator CD3xBCMA bispecific antibody; also called CD3 x BCMA benchmark

How the values were obtained:
[1] = target: T1, human BCMA on multiple myeloma cells (human, UniProt Q02223 1-184); experiment: flow cytometry on NCI-H929 WT cells; one-site binding fit
T1 construct: whole, on cells; Here the protein is the cell lines' own; also called B-cell maturation antigen; TNFRSF17
T1 sequence (looked up): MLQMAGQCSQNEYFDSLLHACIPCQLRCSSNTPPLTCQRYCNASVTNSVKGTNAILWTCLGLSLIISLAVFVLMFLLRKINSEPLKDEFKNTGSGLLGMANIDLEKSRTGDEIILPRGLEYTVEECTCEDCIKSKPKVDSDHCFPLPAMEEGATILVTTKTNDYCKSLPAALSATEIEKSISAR
Procedure: (§1) The plates were centrifuged at 350 g for 3 min at 4° C. and cells washed twice with DPBS.
(§2) Cells were resuspended in 25 μl of LIVE/DEAD Fixable Near-IR Dead Cell Stain (ThermoFisher Scientific, L34976) diluted at 1/1′000 in DPBS and incubated 20 min at 4° C. […] Cells were then washed twice and resuspended in 25 μl of FACS buffer with azide. Samples were acquired on an iQue Screener Plus instrument (IntelliCyt). Cells were gated based on size on FSC vs SSC and debris, doublets and dead cells were excluded. Population was analyzed for APC-geometric mean (geomean) fluorescence intensity (MFI) using iQue Forecyt® software. Only samples showing at least 2′000 cells in final gate were considered in the further steps of the analysis. Relative geometric mean fluorescence intensity (RFI) was calculated by subtracting the MFI of the negative control from the MFI of the sample at each dilution. RFI values were finally plotted using Prism software (GraphPad). Equilibrium dissociation constant values (KD) and maximum binding were determined by using one-site binding curve fitting on non-transformed data (Prism).

[2] = target: T1, human BCMA on multiple myeloma cells; experiment: flow cytometry on NCI-H929 CD38 KO cells (BCMA++CD38-), anti-human IgG secondary, RFI
Procedure: as §1, §2

[3] = target: T1, human BCMA on multiple myeloma cells; experiment: flow cytometry on KMS-12-BM cells; one-site binding fit
Procedure: as §1, §2

[4] = target: T1, human BCMA on multiple myeloma cells; experiment: flow cytometry on NCI-H929 cells (BCMA++CD38++), anti-human IgG secondary, RFI
Procedure: as §1, §2

[5] = target: T2, human CD3 on primary human T cells (human, UniProt P07766 23-207; P04234 22-171; P09693 23-182; P20963 22-164); experiment: flow cytometry on isolated human primary T cells gated CD38-negative; one-site binding fit
T2 construct: whole, on cells; Endogenous CD3 complex on isolated human T cells, gated CD38-negative; also called CD3-expressing T cells; human CD38 negative T cells
Procedure: Cells were thawed in pre-warmed complete RPMI medium (RPMI supplemented with 10% heat inactivated fetal calf serum, 1% L-Glutamine, 1% Non-essential Amino Acids, 1% Sodium Pyruvate, and 1% Penicillin/Streptomycin) and rested overnight at 1.5×10⁶ cells/ml. Cells were plated at 1×10⁵ cells/well in 96-well round-bottom plates. The plates were centrifuged at 350 g for 3 min at 4° C. and cells washed twice with DPBS. Cells were resuspended in 25 μl of LIVE/DEAD Fixable Near-IR Dead Cell Stain (ThermoFisher Scientific, L34976) diluted at 1/1′000 in DPBS and incubated 20 min at 4° C. […] Cells were then washed twice and resuspended in 25 μl of FACS buffer with azide. Samples were acquired on an iQue Screener Plus instrument (IntelliCyt). Cells were gated based on size on FSC vs SSC and debris, doublets and dead cells were excluded. Finally, viable cells were gated on CD38-T cells. The population was analyzed for PE-geometric mean (geomean) fluorescence intensity (MFI) using iQue Forecyt© software. Only samples showing at least 2′000 cells in final gate were considered in the further steps of the analysis. Relative geometric mean fluorescence intensity (RFI) was calculated per donor by subtracting the mean of MFI of the negative control from the MFI of the sample at each dilution. RFI values were finally plotted using Prism software (GraphPad). Equilibrium dissociation constant values (KD) and maximum binding were determined by using one-site binding curve fitting on non-transformed data (Prism). […] Two independent experiments were performed.

[6] = target: T1, human BCMA on multiple myeloma cells; experiment: flow cytometry on KMS-12-BM cells (BCMA+CD38+), anti-human IgG secondary, RFI
Procedure: as §1, §2

[7] = target: T1, human BCMA on multiple myeloma cells; experiment: flow cytometry on NCI-H929 CD38 KO cells; one-site binding fit
Procedure: as §1, §2

[8] = target: T2, human CD3 on primary human T cells; experiment: flow cytometry on isolated human T cells (CD38-negative gate), anti-human IgG secondary, relative fluorescence (RFI)
[9] = target: T1, human BCMA on multiple myeloma cells; experiment: flow cytometry on MOLP-8 cells; one-site binding fit
[10] = target: T3, Biotinylated Human CD38 Protein, Avitag, His Tag (Acrobiosystems CD8-H82E7) (human, UniProt P28907 43-300, biotinylated); experiment: SPR, Fab as analyte, immobilised biotinylated human CD38;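 further: biacore T200 at 25 °C, single-cycle kinetics with Fab from 7.8 to 2000 nM, 3 min association then 5 min dissociation, fitted with a 1:1 Langmuir model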
T3 construct: bought protein; also called biotinylated recombinant human CD38 protein; human CD38-avi-his
Procedure: (§3) Surface plasmon resonance (SPR) was used to measure the binding affinities of the Fab fragments for human and cynomolgus monkey CD38. Affinities were measured on a Biacore T200 instrument (Cytiva Life Sciences) at 25° C. and analyzed with the Biacore T200 Evaluation Software (v3.1).
(§4) The affinities to human and cynomolgus monkey CD38 were assessed by immobilizing CD38 and using Fab fragments as analyte. […] Fab fragments were injected in single cycle kinetic at different concentrations ranging from 7.8 to 2000 nM, in HBS-EP+ buffer (Cytiva Life Sciences, catalog NO: BR100669) at a flow rate of 30 μl/min for 3 min on flow-path 1 and 2 (flow-path 1 being used as reference). Dissociation was monitored for 5 min. […] Experimental data were processed using the 1:1 Langmuir kinetic fitting model.

[11] = target: T4, recombinant cynomolgus monkey CD38-ECD-C-his protein (cynomolgus monkey, UniProt Q5VAN0 45-301); experiment: SPR, Fab as analyte, captured cynomolgus CD38-his
T4 construct: made in house; Q5VAN0 residues 43-301 (residue 44 deleted) with C-terminal 6-His; also called cynomolgus monkey CD38-C-His; recombinant cynomolgus monkey CD38 protein
Procedure: as §3, §4

[12] = target: T5, recombinant human CD38 antigen for crystallography (hsCD38 ECD) (human, UniProt P28907 45-300); experiment: X-ray crystal structure of the complex, 3.4 Å
T5 construct: also called ectodomain of hsCD38
Procedure: The Fab/hsCD38 complex was concentrated to ˜11 mg/mL. […] Drops consisting of 1 μL protein+1 μL precipitant were set up at 20° C., and crystals appeared within 3-7 days. The resulting crystals were cryoprotected by soaking in well solution supplemented with 35% ethylene glycol, then flash cooled and stored in liquid nitrogen until data collection. Diffraction data were collected at the Swiss Light Source (SLS). […] The structure was determined by molecular replacement with Phaser.

[13] = target: T6, human CD38 on multiple myeloma cells (human, UniProt P28907 1-300); experiment: flow cytometry on NCI-H929 BCMA KO cells (BCMA-CD38++), anti-human IgG secondary, RFI
T6 construct: whole, on cells; Here the protein is the cell lines' own
Procedure: as §1, §2

T2 sequence (P07766 23-207, chain 1 of 4): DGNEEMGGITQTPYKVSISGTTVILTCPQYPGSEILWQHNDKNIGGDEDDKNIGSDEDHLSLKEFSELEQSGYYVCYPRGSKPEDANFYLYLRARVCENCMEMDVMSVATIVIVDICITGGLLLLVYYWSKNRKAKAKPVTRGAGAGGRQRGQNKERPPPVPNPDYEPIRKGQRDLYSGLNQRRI
T2 sequence (P04234 22-171, chain 2 of 4): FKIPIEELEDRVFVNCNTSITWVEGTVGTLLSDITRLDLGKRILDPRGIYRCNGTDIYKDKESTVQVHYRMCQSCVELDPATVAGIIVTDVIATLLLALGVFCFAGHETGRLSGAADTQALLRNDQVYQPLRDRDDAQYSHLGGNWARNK
T2 sequence (P09693 23-182, chain 3 of 4): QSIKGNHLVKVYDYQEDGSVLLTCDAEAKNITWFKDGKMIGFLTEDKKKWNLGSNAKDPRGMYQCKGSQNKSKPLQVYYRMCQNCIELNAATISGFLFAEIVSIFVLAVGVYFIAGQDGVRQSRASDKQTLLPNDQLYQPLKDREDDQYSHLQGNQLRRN
T2 sequence (P20963 22-164, chain 4 of 4): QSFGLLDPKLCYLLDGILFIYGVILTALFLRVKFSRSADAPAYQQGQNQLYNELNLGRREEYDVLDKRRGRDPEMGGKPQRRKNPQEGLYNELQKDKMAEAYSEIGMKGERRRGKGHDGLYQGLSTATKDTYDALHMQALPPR

Binder | Kd [1] [nM] | EC50 (read off the curve) [2] [nM] | Kd [3] [nM] | EC50 (read off the curve) [4] [nM] | Kd [5] [nM] | EC50 (read off the curve) [6] [nM] | Kd [7] [nM] | EC50 (read off the curve) [8] [nM] | Kd [9] [nM] | Kd [10] [nM] | Kd [11] [nM] | binding result [12] | binding result [13]
B1 | 30.4 | ~40 | 21.8 | ~30 | 18 | ~20 | 46.3 | ~20 | 95.8 |  |  |  | 
B2 |  |  |  |  |  |  |  |  |  | 115 | 170 | binds | 
B3 |  |  |  |  | 155 |  |  |  |  |  |  |  | no binding (tested: 800 nM)
